Results from PMC3383723.

Target: T1, Vps41-TAP (yeast), P38959
T1 chain: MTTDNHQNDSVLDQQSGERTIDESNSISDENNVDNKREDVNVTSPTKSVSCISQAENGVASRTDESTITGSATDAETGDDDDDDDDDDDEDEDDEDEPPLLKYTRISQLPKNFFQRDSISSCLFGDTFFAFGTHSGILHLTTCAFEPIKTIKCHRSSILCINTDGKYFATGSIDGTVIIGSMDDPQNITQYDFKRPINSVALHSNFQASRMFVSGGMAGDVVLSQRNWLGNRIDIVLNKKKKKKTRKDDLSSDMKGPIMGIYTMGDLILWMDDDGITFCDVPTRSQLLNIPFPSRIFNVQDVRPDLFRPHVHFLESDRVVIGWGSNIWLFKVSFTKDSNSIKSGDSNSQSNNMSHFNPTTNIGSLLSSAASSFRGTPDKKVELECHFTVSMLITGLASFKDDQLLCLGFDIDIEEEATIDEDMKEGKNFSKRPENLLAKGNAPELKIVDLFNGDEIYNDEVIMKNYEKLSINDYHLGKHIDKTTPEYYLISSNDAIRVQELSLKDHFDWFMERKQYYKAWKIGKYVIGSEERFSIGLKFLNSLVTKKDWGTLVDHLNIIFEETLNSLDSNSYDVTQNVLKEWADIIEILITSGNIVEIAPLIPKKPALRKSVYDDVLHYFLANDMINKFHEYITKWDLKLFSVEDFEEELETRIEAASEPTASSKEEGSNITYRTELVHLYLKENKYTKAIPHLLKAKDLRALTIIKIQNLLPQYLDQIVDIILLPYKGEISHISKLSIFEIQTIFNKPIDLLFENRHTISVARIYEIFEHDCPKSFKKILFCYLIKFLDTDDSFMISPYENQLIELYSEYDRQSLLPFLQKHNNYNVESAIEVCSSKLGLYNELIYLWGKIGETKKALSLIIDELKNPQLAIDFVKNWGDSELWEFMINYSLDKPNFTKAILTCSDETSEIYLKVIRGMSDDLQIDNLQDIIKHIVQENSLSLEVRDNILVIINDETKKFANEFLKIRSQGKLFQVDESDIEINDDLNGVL
Test: co-IP
Details: remark: other sources report otherwise

B1: Vps39, Q07468 1-1049 (natural protein)
chain: MLRAQKLHSLKSSDITAILPTEQSQKLVLAKKNGDVEVYSRDGNTLKLFQVYPDLLQNAKNDPLPPVIENFYFANELSTIFAQCKETLILLSTTNLHEYDRIIDRRGINHCWLFERSHKNKEEKNTYLIYSTINTAKMRVLIWEGRTYKNMMEASLSYRKETIRSIYPGETGITLATDLGIYHWPYNKPSLIRIEKTVKNKFPKDMISALTELKEQAEKVIEKKPKKNSHFDAQSFSSMDRMSRKSSMSSLWYRTIRNERGNKIRYTFELDGNDATPMIIDGATKKIFKVELMHNNEEPFLIATDHATFSESNSEFDHMQYLSSNLLMLYNSSTIKFVDYENGFTFLQQKIPEGIKWVKNLSGTYFLVWTSNDEVQLFSYHVDDGSEDDDQESICGDINDPDFYQLWRKVLFYKFFIDSPHSKELCVSDNPEESLDICAMKLRDLTVMWCLRIFDKFQNYMVQLERSRNSRMIRSKCEEMIIKSIFDLFIKFWAPPQLVILKVFPSAISSLVLEITGQEHHCLLKEAEEVKETYDIPPHLLNRWCLPYLTDTRRHLQNLLSKENDDESRITWCYRDREIKQSFDFFLISNHDDVDLNTMLTLIDTVLFKCYLYYNPPMVGPFIRVENHCDSHVIVTELKIRHMFKDLIDFYYKRGNHEEALKFLTDLVDELENDNTDQKQRQKIDHGVKILVIYYLKKLSNPQLDVIFTYTDWLLNRHNDSIKEILSSIFFYDSQACSSRDHLKVYGYIKKFDKLLAIQYLEFAISTFRLEGNKLHTVLIKLYLENLDIPSTRIKLKSLLETTSVYEPRTILKLLNDAIESGSDQLPTNQLNFVKYLKIFPLSKLENHKEAVHILLDEIDDYKAATSYCNDVYQSDSTKGEELLLYLYSKLVSIYDSNRNSKLILNFLQDHGSKLNSAEIYKNLPQDISLYDIGRVVSQLLKKHTSKMDETRLEKALLQVELVATTYKLNERMSSYGVLSDSHKCPICKKVISNFGTDSISWFTREGRNIITHYNCGKVLQERFNAKNEKSSRIKQKTLGEVINELNNK
co-precipitation efficiency relative to that of Vps41-HA: 2 fold
